The assay concerns the target PP2A-B56γ1 holoenzyme (UniProt P30153).

Sequence of PP2A-B56γ1 holoenzyme (P30153 whole entry, chain 1 of 3, other chains not shown): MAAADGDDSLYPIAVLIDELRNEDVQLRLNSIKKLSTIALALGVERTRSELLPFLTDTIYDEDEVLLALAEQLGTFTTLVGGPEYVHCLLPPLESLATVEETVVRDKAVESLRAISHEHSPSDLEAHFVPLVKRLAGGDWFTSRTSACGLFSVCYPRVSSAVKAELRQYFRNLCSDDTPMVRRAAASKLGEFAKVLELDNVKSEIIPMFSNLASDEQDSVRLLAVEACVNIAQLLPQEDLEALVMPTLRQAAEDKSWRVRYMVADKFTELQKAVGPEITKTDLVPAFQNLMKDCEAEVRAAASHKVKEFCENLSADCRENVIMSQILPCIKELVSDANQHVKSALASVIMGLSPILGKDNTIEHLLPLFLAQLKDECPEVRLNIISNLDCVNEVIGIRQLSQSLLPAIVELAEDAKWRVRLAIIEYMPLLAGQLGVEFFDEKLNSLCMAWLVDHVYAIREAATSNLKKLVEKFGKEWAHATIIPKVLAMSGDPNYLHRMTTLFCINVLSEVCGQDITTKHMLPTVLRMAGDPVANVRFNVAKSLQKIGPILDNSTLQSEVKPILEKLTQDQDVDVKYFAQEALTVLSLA
Sequence of PP2A-B56γ1 holoenzyme (P67775 whole entry, chain 2 of 3, other chains not shown, further chain): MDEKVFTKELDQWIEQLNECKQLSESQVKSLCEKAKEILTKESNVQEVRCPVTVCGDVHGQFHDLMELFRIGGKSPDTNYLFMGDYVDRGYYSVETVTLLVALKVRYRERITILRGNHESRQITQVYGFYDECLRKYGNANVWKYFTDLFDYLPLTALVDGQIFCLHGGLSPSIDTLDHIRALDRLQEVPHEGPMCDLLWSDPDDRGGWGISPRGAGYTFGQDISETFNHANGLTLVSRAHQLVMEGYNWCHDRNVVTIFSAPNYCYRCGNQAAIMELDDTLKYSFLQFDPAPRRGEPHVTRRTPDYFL
Sequence of pS133-CREB (129–154) peptide (P16220 129-154): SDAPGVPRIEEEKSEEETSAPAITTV

In the case of “pS133-CREB (129–154) peptide (from UniProt P16220-2 129-154)”, the Km of PP2A-B56γ1 holoenzyme phosphatase activity toward pS133-CREB (129–154), steady-state kinetics with a phosphate sensor (peptide 3.9 to 250 μM) amounted to 10.3 μM.

For the origin of these results see article PMC8294589.
